Source: patent US20260116949A1

Target: endogenous TCRs of un-transduced activated human T cells (Untd)
Test: flow cytometry, FITC-anti-human TCR Vβ13.1 staining of un-transduced activated human T cells

% of cells positive for staining: 3.9%
Substance: FITC anti-human TCR Vβ13.1 Antibody (EBIOSCIENCE, …X, THERMO FISHER …)
